Laboratory results reported in the supplement of paper PMC9170038.

Test system: MS2 coat protein
Experiment: apparent KD of MS2 coat protein; designed switch direction (-1 OFF switch, 1 ON switch): -1; higher = weaker reporter binding
Summary of the method: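 Designed RNA switches with common flanks were transcribed on Illumina chips by stalled E. coli RNA polymerase and titrated with SNAP-549-labelled MS2 coat protein, from 0.7 or 1.5 nM doubling to 3 µM, in Tris-HCl pH 7.5 buffer with KCl, MgCl2, BSA, DTT, tRNA and Tween-20. Steps lasted 0.8–1.5 h (lowest) to 10–20 min (highest). Titrations ran without input, with 200 uM small-molecule ligand, or with an oligonucleotide input. Normalised cluster fluorescence was curve-fitted, and apparent KD is the per-design median over clusters.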

[1] = Eterna round: R95, input ligand: microRNA oligo, concentration not stated
[2] = Eterna round: R95, input ligand: FMN 200 uM
[3] = Eterna round: R95, input ligand: none
[4] = input ligand: microRNA oligo, concentration not stated

| Sequence | apparent KD of MS2 coat protein [1] | apparent KD of MS2 coat protein [2] | apparent KD of MS2 coat protein [3] | apparent KD of MS2 coat protein (input ligand: FMN 200 uM) | apparent KD of MS2 coat protein (input ligand: none) | apparent KD of MS2 coat protein [4] |
| --- | --- | --- | --- | --- | --- | --- |
| GCUUGUAGAGGAUAUACAAGGGCCUUAGCGGAAAACUCCGCACAUGAGGAUCACCCAUGUAGAAGGCUACCACC [Isrianqu] (puzzle: Exclusion 2) | 15.1 nM | – | – | – | – | – |
| GGUUGUUUUUUCCGUUCUUACAUGAGGAUCACCCAUGUUUCUUGUCGUGCUCGCGUUGCUCGUCUGUCUGUCUGUUG [salish99_TOv1_r3_073] (puzzle: Sensor v3, turn-off variant 1) | 34.3 nM | 48.5 nM | 56 nM | – | – | – |
| ACUUACCAUGUCAGGAUAUGUACUUAGAACGCGAUGCAGAAGGGACAUGAGGAUCACCCAUGUAAUGUCUGAUA [Eternabot (L2) Solution 2] (Eterna round: R97, puzzle: Brourd's mod of Exclusion 4) | – | – | – | 51.6 nM | 21.1 nM | – |
| AACAGUGAUGAGGAUAUAUAAAGAGAAAAGAAAAUAGAAGGUGUCACAUGAGGAUCACCCAUGUGUUCUUCAGA [EX6 A.12] (Eterna round: R97, puzzle: Exclusion 6) | – | – | – | 17.4 nM | 16.5 nM | – |
| CCGGAAAUGUAGGAUAUAGGAGUCGAUAGACACCUAGAAGGGCAUACAUGAGGAUCACCCAUGUGUCCUACCGG [Fiskers Ex 6 - 80] (puzzle: Exclusion 6) | 11.8 nM | – | – | – | – | – |
| UCCUCACAUGAGGAUCACCCAUGUGAGGAUAUGGGCCCGGGCCCGAAAGGGCCCGGGCCCAGAAGGCACUGGGU [MoB_2] (Eterna round: R97, puzzle: Exclusion 1) | – | – | – | 25 nM | 56.1 nM | – |
| AGAGUGCUGCGAGGAUAUACAUGAGGAUCACCCAUGUUUACCUGUGAGGCAAAGCCUCACAGGUUGUAGAAGGCGCAGUACUCA [Mat - Exclusion NG 2 - Mod of JL - D42] (Eterna round: R96, puzzle: Exclusion NG 2) | – | – | – | 9.39 nM | 19.4 nM | 10.1 nM |
| ACAAGCUUUUUGUUCGUCUUAUAAUAAUAAAUAAAGAUAACAUGAGGAUCACCCAUGUAAAGAAGACGGCCUCAUGU [Sesor Array 20 - Jieux - Sensor v3, turn-off variant 2] (puzzle: Sensor v3, turn-off variant 2) | 233 nM | 785 nM | 1120 nM | – | – | – |
| UUUAAUUUUUUUUUUUUACAAGCUUUUUGCUCGUCUUAUACAUGAGGAUCACCCAUGUAGGUGAAGAGUAAAUUAUC [JMF 58] (puzzle: Sensor v3, turn-off variant 2) | 109 nM | 19.4 nM | 16.5 nM | – | – | – |
| GUCCGGCGUGUAGGAUAUGGUUCCGUUUCGGUUCCAGAAGGACAUGAGGAUCACCCAUGUGCCUGUCGUCGGUCGUCACCGGGC [salish99_ExNG1_r04_220] (Eterna round: R96, puzzle: Exclusion NG 1) | – | – | – | 19.5 nM | 14.8 nM | 10.3 nM |
| UUGCUACCUUGGUACUCUACAAGCUUUUUGCUCGUUUUAACAUGAGGAUCACCCAUGUCUAGUGGAUCUGAUCGGGU [JL ViennaUCT Isreen mod 3] (puzzle: Sensor v3, turn-off variant 2) | 197 nM | 87.4 nM | 77.5 nM | – | – | – |
| CGGAUGUGAGGAUAUACAUGAGGAUCACCCAUGUGUGCCAGCUAGAUGACUGGCACUUGUAGAAGGCACGUCUG [Mat - Exclusion 3 - Mod of JL D91] (Eterna round: R96, puzzle: Exclusion 3) | – | – | – | 25.5 nM | 16.1 nM | 11.3 nM |
| UAUAUAUAGUAAGGAUAUGUAAUUAUUUUAUGAACAGAAGGUACUGACAUGAGGAUCACCCAUGUUUUAGUGUGGGCAUGUAGA [JMF's solution 48] (Eterna round: R96, puzzle: Exclusion NG 1) | – | – | – | – | – | 61.3 nM |
| CGAUAAAGGUGAGGAUAUGAGAAUAGAAAGAAAUCAGAAGGCACACAUGAGGAUCACCCAUGUGAGUUCUCGAGAUUACAUGGU [Prohibition 45 - Jieux - Exclusion NG 1] (Eterna round: R96, puzzle: Exclusion NG 1) | – | – | – | – | – | 10.8 nM |
| CUGAUGUGAGGAUAUCUACGCCAAGUGUUUCACUUGGCGCAAGAGAAGGCACAUGAGGAUCACCCAUGUACUUC [jl-ex4-4.37 ViennaUCT mod] (Eterna round: R97, puzzle: Exclusion 4) | – | – | – | 137 nM | 22.8 nM | – |
| AAAAUGUAAGGAUAUGGCCGGGACCCAGGGUUUGGACCCGGCUAGAAGGUACAUGAGGAUCACCCAUGUAAGAA [Excls4-VIII] (puzzle: Exclusion 4) | 16.1 nM | – | – | – | – | – |
| CGAUCGGUAGGAUAUACAUGAACCUUGGUUGUGAGGCCUAAACAUGAGGAUCACCCAUGUAGAAGGACCUCGUA [EX2 C.10] (Eterna round: R97, puzzle: Exclusion 2) | – | – | – | 13.9 nM | 13.8 nM | – |

| Sequence | apparent KD of MS2 coat protein [1] | apparent KD of MS2 coat protein [2] | apparent KD of MS2 coat protein [3] | apparent KD of MS2 coat protein (input ligand: FMN 200 uM) | apparent KD of MS2 coat protein (input ligand: none) | apparent KD of MS2 coat protein [4] |
| --- | --- | --- | --- | --- | --- | --- |
| UGAUCACAUGAGGAUCACCCAUGUCAGGAUAUCUACAUUGAAGCUGCGGCUUCAAUGUAGAGAAGGGACAUAAU [E1/3-B3] (Eterna round: R97, puzzle: Exclusion 1) | – | – | – | 117 nM | 355 nM | – |
| GGGAUGUGAGGAUAUCGAGGUGGAAAGCACCUAACAGAAAACGAGAAGGCACAUGAGGAUCACCCAUGUAAUAC [Ditete] (puzzle: Exclusion 4) | 19.5 nM | 54.6 nM | 19.8 nM | – | – | – |
| UUCAGUCUAGAGGAUAUGCUGGAUUAAUAUCUGGCAGAAGGCUGGACAUGAGGAUCACCCAUGUAAAUACUACC [Omei Ex6 A5] (Eterna round: R97, puzzle: Exclusion 6) | – | – | – | 356 nM | 68.3 nM | – |
| ACAAGCUUUAGGCGUGUGAACAUGAGGAUCACCCAUGUAUUUUUGGUUAGGAGUUCUGUAAGGGAUGCUCGUCUUAU [JR_SWV3TOV1_Sub091] (puzzle: Sensor v3, turn-off variant 1) | 55.1 nM | 42.2 nM | 48.9 nM | – | – | – |
| CUAAAAGUCGAGGAUAUGCACCGGCUCGCUGACGCAGAAGGCGACACAUGAGGAUCACCCAUGUCGGUACGCGA [salish99_ex6_r004_451] (Eterna round: R97, puzzle: Exclusion 6) | – | – | – | 33.9 nM | 18.3 nM | – |
| GGUCAAGAACAGCGCCGCGCUGCCCUUGACCGCUCAUUUACAUGAGGAUCACCCAUGUUUUUUGCUUGUCUUGUUUC [Tiordiri] (puzzle: Sensor v3, turn-off variant 2) | 101 nM | 20.6 nM | 23.7 nM | – | – | – |
| UAUACAAAAGAUACCUCGUGACAUGAGGAUCACCCAUGUUUUGAGGAUAUCAGACUUCAUGGUCAUGAGAAGGCAGAGCAUGAU [Tireala] (Eterna round: R96, puzzle: Exclusion NG 3) | – | – | – | 20.4 nM | 13.6 nM | 10.1 nM |
| CUUGAGCAGGUAGGAUAUACGAAGUGUCGGCGAGUAGAAGGACCUGCGAUCCACUUGAGGAUCACCCAAGUUCGCAGGAGAACA [Mutated MS2 EX1.1] (Eterna round: R96, puzzle: Exclusion NG 1) | – | – | – | 241 nM | 61.3 nM | 32.4 nM |
| CCCUUGUGAGGAUAUUUUUAAAAUGCUAACCACAAUUUUAUGAAGAAGGUACAUGAGGAUCACCCAUGUUUCUC [Tried to obey the law of the pack] (Eterna round: R97, puzzle: Exclusion 4) | – | – | – | 20 nM | 21 nM | – |
| CUACUCGUUGUGAGGAUAUCGUUUUCGUCACGGAUCGAGAAGGCACAUGAGGAUCACCCAUGUUUGAUGUGGAU [JR_BMOE4_Sub091] (Eterna round: R96, puzzle: Brourd's mod of Exclusion 4) | – | – | – | 89 nM | 38.1 nM | 29.9 nM |
| GACUUCUCUGAGGAUAUUGCAUCAUACGAUUUAUAAGAAGGCAGAACAUGAGGAUCACCCAUGUGGGUUUUUAG [Bingo-Bango-30] (Eterna round: R97, puzzle: Exclusion 6) | – | – | – | 102 nM | 55 nM | – |
| AGUACUAACACGAGAGUGUUAGUACUAUAAGCUUGUGUUACAUGAGGAUCACCCAUGUCCUCAUAAGCUCGUCUUAA [Mat - Sensor v3 - Turn-off var 2 - D64] (puzzle: Sensor v3, turn-off variant 2) | 185 nM | 33.3 nM | 35.8 nM | – | – | – |
| UUAGAUAGGUCAGGAUAUCGAUGAUUGAAUUGUAUGAUUUACAUGAGGAUCACCCAUGUUUUGUACGAGAAGGGACGUUAGAUU [JR_ExcNG2_Sub018] (Eterna round: R96, puzzle: Exclusion NG 2) | – | – | – | 26.7 nM | 37.2 nM | 17.6 nM |
| GGAAAGGUAGGAUAUACGAAGAAAAAGGGUAGAAUAAUAACACAUGAGGAUCACCCAUGUAGAAGGACCAAAUG [Mat - Exclusion 2 - Mod of my Tesla design - D7] (puzzle: Exclusion 2) | 37.8 nM | 71.1 nM | 29 nM | – | – | – |
| CCGUAACAUGAGGAUCACCCAUGUUAGGAUAUGUAGCGCUGGGCAUCCUCAGCUGGUUAUAGAAGGGACGAGGG [Eternabot (L2) Solution 15] (Eterna round: R97, puzzle: Exclusion 1) | – | – | – | 73.7 nM | 111 nM | – |
| UAUGGUUAAGUCAGGAUAUACAAACAGAAAUCUGAGUAGAAGGGACAUGAGGAUCACCCAUGUAUGGUAGUGUU [Ex4 #56] (Eterna round: R97, puzzle: Brourd's mod of Exclusion 4) | – | – | – | 48.6 nM | 44.6 nM | – |
